The target of this test is amino-terminal hexahistidine-tagged EttA-EQ2 (E. coli) (UniProt P0A9W3). As to the kind of experiment: pull-down.

For the substance “E. coli 70S ribosome (from UniProt P0A7L0 1-234; P62399 1-179; P0A7N9 1-55; P02359 1-179; P0A7R1 1-149) (complex)”, the stoichiometry N (EttA-EQ2:70S ribosome) was 1.

These data come from publication PMC4143144.
